Measurements taken from patent publication US11994512B2, “Single-cell genomic methods to generate ex vivo cell systems that recapitulate in vivo biology with improved fidelity” (Massachusetts Institute of Technology, priority 2018, dated 2024).

Test system: intracellular proteome of ENR+CD and ENR organoids
Test: LC-MS/MS TMT proteomics of ENR+CD versus ENR organoids
Type: cell-based, C57BL/6 mice
Details: for Average logFC: ENR+CD versus ENR organoids, sample pairs in aggregate (n=4, 2 technical replicates from two biological donors); for M1-1 Log2 Median Normalized / M1-2 Log2 Median Normalized / M2-1 Log2 Median Normalized / M2-2 Log2 Median Normalized: protein abundance ratio ENR+CD versus ENR organoids, LC-MS/MS TMT proteomics; for M1-1 Log2 Median Normalized: sample pair M1-1; for M1-2 Log2 Median Normalized: sample pair M1-2; for M2-1 Log2 Median Normalized: sample pair M2-1; for M2-2 Log2 Median Normalized: sample pair M2-2; for change: up = enriched in ENR+CD, down = enriched in ENR, FDR<0.05 and log fold change cut-off

Molecule | Average logFC | M1-1 Log2 Median Normalized | M1-2 Log2 Median Normalized | M2-1 Log2 Median Normalized | M2-2 Log2 Median Normalized | change
Q8BM96 (protein, UniProt Q8BM96 1-785, looked up, full-length) MRSCRSCNVRVLVAIVCGLLTGIVLGLGIWRMVIRINRGIFVPVPSIPVQFCRNGGTWQNGRCICTEEWKGLRCTIANFCENSTDGEFTFGSIPVGRYGPSLQTCEPGTLNAGSPKATRLCNVSEFGNIELQNVTKGSCNINLQTLEIQINNQTASAENISREAQVLTADASKLTAQNITSATTVVGQIFGKANNESQAKKTAIATVSQILDASEDVFQKAAEMDNSKSFSNLIKQMENYSYSQGDQTVVEPNIAIQSVTRDDNSGPSVLFSVQKGSSNSLVSGRILINKTANGLNPDGQTELQILLNTGENRKSCGFMVYQNHKLFQSKTFTATSDFSQKIISSKINESEQQRQNKVSVEMVFNPTYDKRELRLHSYACVYWNFLINDWDTQGCQKTGNTTEFLRCNCSHTTNFAVLMSFKKDYKYPKSLDILSNIGCALSIAGLALTILFQILTRKIRKTSVTWVLVSLCSSMLIFNLLFVFGIENSNKNLKTSDSDINVKPENNKIPESDTIETPNPSCTAIAALLHYFLLVTFTWNGLSATQLYFLLIRTMKPLPRHFIIFISLVGWGVPAIIVGVTIGSIYALSGNKRYWELDYRQEEICWLAVPKDNDYARSPLLWSFIIPVTIILITNITIFVIITVKVLWKNNQNLTSTKKVSSLKKVFSTLSIAVVFGVTWILAYAMLISNDDIRIVFSYIFCLFNTTQGLQIFILYTVRTKVFQSEASKILKSLSSSFDRTKPMPSITPLKLRVRMYNMLRSLPSLNERFRLLEPSGMTEETSLS | −1.142 | −0.895 | −1.193 | −1.2285 | −1.142 | down
Q80Z37 (protein, UniProt Q80Z37 1-1033, looked up, full-length) MGSQPPPPGSPLSREEGEAPPLVPAEEGRRRSRRVRLRGSCRHRPSLLSRRELASNGPAVPATASSEIMASAAKEFKMDNFSPKAGTSKLQQTVPADASPDSKCPICLDRFDNVSYLDRCLHKFCFRCVQEWSKNKAECPLCKQPFDSIFHSVRAEDDFKEYVLRPSYNGSFTNPEVRRFRYRTTMTRERSASLYSPSSTVSRRTTTPPDSGVLFEGLGISTRPRDVDIPQFMRQMALRGPTTTDERSLRKIQEQDIINFRRTLYRAGVRVRSIEDGGRYRDISAEFFRRNPACLHRLVPWLKRELTVLFGAHGSLVNIVQHIIMSNVTRYDLESQAFVSDLRPFLLNRTEHFIHEFISFARSPFNMAAFDQHANYDCPPSSEEGSRSDSSVITISPDEAETQELDMNASTVRQAPWDDETPGPSYSSSEQVHVGVSSLLNSSDSSDEELVSGGTTSQIQGVQTNDDVNNDSDSSSDNCVIVGFVKPLAERTPELVELSSDSEELGPYEKVETVKTQEQEQSYSSGDSDVSRASSPRSVLGKDEQMSKSHCDSDTRISSKKEEKRSTSLPAPRDSSSTRGDRVCSPYNHRHRKGGRSRSSDSRSQSRSGHDPRNHRKHGKKRLRNKRSRSRESSSRPRARKDKKRSRTRDSSWSRRSQTLSLSSGSTSRSRSRSSDHGKRRSRSRNRDRYYLRNNYGSKYKWEYTYYSRNKDRDGYESSYRRRTLSRAHYSRQSSSPEFRIQSFSERTNARKKNHSERKYYYYERRRSRSVSSNRSRTTSAGPDRVRNEKPGGKRKYKTRHLEGTSEEAQPAREFTSKGKDSHYQKSKLDGSYKNESDSFSDSRSSDRETKHKRRRRRTRSLSVEIVYEGKATDTSKHHKKKKKKHKKKHKKHHGDNTSRSPVVITIDSDSDGESEVKAGIECSNGSLPQPIQDGAFETKDVVTIEDELGVLDKDCDVTALADDLSTSQTVENCDSPAVPVEQTLDVREESTFASDLESQSSNVSIQAEPSRPVPSPRTSLSSVSPGRDCDVS | 1.193 | 1.31 | 0.914 | 1.7665 | 0.782 | up
Q8BK48 (protein, UniProt Q8BK48 1-559, looked up, full-length) MPLYKLLGWLNAVACGVLLLVLHVQGQDSASPIRNTHTGQVRGSLVHVKDTDIAVHTFLGIPFAKPPVGPLRFAPPEAPEPWSGVRDGTSHPNMCLQNDNLMGSEDLKMMNLILPPISMSEDCLYLNIYVPAHAHEGSNLPVMVWIHGGALTVGMASMYDGSMLAATEDVVVVAIQYRLGVLGFFSTGDQHAKGNWGYLDQVAALRWVQQNIVHFGGNPDRVTIFGESAGGTSVSSHVVSPMSQGLFHGAIMESGVAVLPDLISSSSEMVHRIVANLSGCAAVNSETLMCCLRGKNEAEMLAINKVFKIIPGVVDGEFLPKHPQELMASKDFHPVPSIIGINNDEYGWILPTIMDPAQKIEEITRKTLPAVLKSTALKMMLPPECGDLLMEEYMGDTEDPETLQAQFREMKGDFMFVIPALQVAHFQRSHAPVYFYEFQHRPSFFKDFRPPYVKADHGDEIFLVFGYQFGNIKLPYTEEEEQLSRRIMKYWANFARHGNPNSEGLPYWPVMDHDEQYLQLDIQPSVGRALKARRLQFWTKTLPQKIQELKGSQERHKEL | −1.69 | −1.646 | −1.907 | −2.1625 | −1.046 | down
Q8BPQ7 (protein, UniProt Q8BPQ7 1-1093, looked up, full-length) MASVPAEAETRQRLLRTVKKEVKQIMEEAVTRKFVHEDSSHIISFCAAVEACVLHGLRRRAAGFLRSNKIAALFMKVGKGFPPAEELSRKVQELEQLIESARNQIQGLQENVRKLPKLPNLSPLAIKHLWIRTALFGRVLDKIVHYLVENSSKYYEKEALLMDPVDGPILASLLVGPCALEYTKMKTADHFWTDPSADELVQRHRIHSSHLRQDSPTKRPALCIQKRHSSGSMDDRPSISARDYVESLHQDSRATLLYGKNNVLVQPRDDMEAVPGYLSLHQTADVMTLKWTPNQLMNGSVGDLDYEKSVYWDYAVTIRLEEIVYLHCHQQVDSGGTVVLVSQDGIQRPPFRFPKGGHLLQFLSCLENGLLPHGQLDPPLWSQRGKGKVFPKLRKRSPQGSSESTSSDKEDDEATDYVFRIIYPGTQSEFVPQDLMDVSMNNLPPLWQPSPRKSSCSSCSQSGSADGGSTNGCNHERAPLKLLCDNMKYQILSRAFYGWLAYCRHLSTVRTHLSALVNHMIVSPDLPCDAGQGLTASIWEKYIQDSTTYPEQELLRLIYYGGVQPEIRRAVWPFLLGHYQFGMTEMERKEVDEQIHACYAQTMSEWLGCEAIVRQRERESHAAALAKCSSGASLDSHLHRMLHRDSTISNESSQSCSSGRQNLRLQSDSSSSTQVFESVDEVEQTEAEGRSEEKHPKIPNGNPANGTCSPDSGHPSSHNFSSGLSEHSEPSLSTEDSVLDAQRSLPAVFRPGDSSVEDGQSSEATTSRDEAPREELAVQDSLESDLLANESLEEFMSIPGSLDVALPEKDGAVMDGWPGEADKPSRADSEDNLSEEPEMESLFPALASLAVTSSANNEASPVSSSGVTYSPELLDLYTVNLHRIEKDVQRCDRSYWYFTAANLEKLRNIMCSYIWQHIEIGYVQGMCDLLAPLLVILDDEALAFSCFTELMKRMNQNFPHGGAMDTHFANMRSLIQILDSELFELMHQNGDYTHFYFCYRWFLLDFKRELVYDDVFSVWETIWAAKHVSSAHYVLFIALALVEVYRDIILENNMDFTDIIKFFNEMAERHNAKQILQLARDLVHKVQILIENK | 1.34 | 1.5 | 0.707 | 1.4015 | 1.339 | up
